Experimental data taken from patent US20170306038A1 (published 2017).
Substitutions are numbered along the chain they refer to. Values belong to the binder of their own block, whether it stands above or below them.

Key:
[1] = biological target: T1, FAS; test: specificity ELISA on bacterial lysates with TNFRSF members, HisGrab nickel plate
T1 construct: not shown: His tag, implied by the HisGrab nickel plate; The construct's exact limits are also wanting
T1 chain: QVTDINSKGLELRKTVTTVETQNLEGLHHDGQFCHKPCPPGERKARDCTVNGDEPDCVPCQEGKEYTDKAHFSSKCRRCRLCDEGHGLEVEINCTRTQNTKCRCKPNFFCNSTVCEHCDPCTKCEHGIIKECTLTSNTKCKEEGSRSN
Experimental: For the specificity ELISA, a crude cell lysate was made from bacteria expressing members of the TNFRSF family. To prevent nonspecific binding to the plate 50 μL of 5% BSA was added per mL of bacterial lysate. […] The plate was then rinsed three times with PBST, then MAB was diluted to 0.5 μg/mL in 10% FBS in PBS and 100 μL was added to each well. The plate was incubated for 1 hour at room temperature and then rinsed three times with PBST. Anti-human kappa antibody (Sigma #A7164) conjugated to HRP was diluted 1:5000 in 1:1 PBST: 10% FBS in PBS and 100 μL added to each well. The plate was incubated for 1 hour at room temperature, and then washed three times with PBST. 100 μL of SureBlue TMB substrate was added to each well and the plate was incubated for about 10 min at room temperature before stopping the reaction with 100 μL/well of 2N H₂SO₄.

[2] = biological target: cyno GITR (cGITR) (cynomolgus monkey); test: Biacore
[3] = biological target: cyno GITR (cGITR) (cynomolgus monkey); test: Biacore; remark: listed apart in the source
[4] = biological target: T2, human GITR on cells (human, UniProt Q9Y5U5 27-241); test: FACS competition on HEK293 cells stably expressing hGITR: human GITR ligand titrated first, then 4 nM MAB7 as the competitor read out with PE anti-human
T2 construct: also called hGITR; 293 cells stably transfected with human GITR
T2 sequence: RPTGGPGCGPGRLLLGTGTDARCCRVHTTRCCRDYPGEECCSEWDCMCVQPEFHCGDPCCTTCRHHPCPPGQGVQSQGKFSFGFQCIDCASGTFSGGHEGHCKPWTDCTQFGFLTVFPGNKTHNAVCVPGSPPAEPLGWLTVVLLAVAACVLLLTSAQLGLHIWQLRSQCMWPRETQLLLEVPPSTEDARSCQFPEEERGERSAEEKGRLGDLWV
Experimental: The ability of MAB to block ligand binding was assessed using HEK293 NFκB reporter parental cells and hGITR stable cells were used in competition binding assays and FACS analysis. Briefly, harvested cells were plated 1×10⁶ cells per mL, 100 μL per well to a 96 well round bottom FACS plate (Corning), then resuspended in 200 μL of cold FACS buffer (1×PBS+1% FBS-HI+0.1% sodium azide) per well. […] Plates were incubated for 1 hour on ice protected from light, cells washed, then prepared 4 nM isotype control or MAB solutions were prepared and added to appropriate wells at 100 μL per well and plates were incubated for 1 hour on ice protected from light, cells washed, then PE-conjugated goat-anti-human detection antibody (Jackson ImmunoResearch) prepared at 1:100 dilution in FACS buffer was added at 100 μL per well and plates were incubated for 30 minutes on ice protected from light. Cells were washed in FACS buffer then cells were fixed with 100 μL per well of BD CytoFix (BD Biosciences) and incubated for further 15 minutes on ice protected from light.

B1: MAB4 (IgG1 kappa) (antibody, V domains shown)
VH: EVQLVESGGGLVQSGGSLRLSCAASGFSLSSYGVDWVRQAPGKGLEWVGVIWGGGGTYYASSLMGRFTISRDNSKNTLYLQMNSLRAEDTAVYYCAKHAYGHDGGFAMDYWGQGTLVTVSS
VL: EIVMTQSPATLSVSPGERATLSCRASESVSSNVAWYQQRPGQAPRLLIYGASNRATGIPARFSGSGSGTDFTLTISRLEPEDFAVYYCGQSYSYPFTFGQGTKLEIKR
binding result [1]: no binding (tested: 0.5 µg/mL (not on the sheet))
fold lower binding affinity for cyno GITR against human GITR [2]: 2 to 3 fold
Kd [3]: 1.78 nM

B4: recombinant human GITR ligand (GITR-L) (ligand, UniProt Q9UNG2 52-177, looked up)
chain: ETAKEPCMAKFGPLPSKWQMASSEPPCVNKVSDWKLEILQNGLYLIYGQVAPNANYNDVAPFEVRLYKNKDMIQTLTNKSKIQNVGGTYELHVGDTIDLIFNSEHQVLKNNTYWGIILLANPQFIS
IC50 (read off the curve) [4]: ~0.2 molar ratio (Human GITR Ligand to MAB7)

More lines, in order of falling Kd [3], values ahead:

Kd [3]: 3.67 nM
B2: MAB7 (IgG1 kappa) (antibody, V domains shown)
VH: B1 VH with K97R
VL: B1 VL
notes: MAB4 with the glycation site KH changed to RH

fold lower binding affinity for cyno GITR against human GITR [2]: 2 to 3 fold
Kd [3]: 1.87 nM
B3: MAB5 (IgG1 kappa) (antibody, V domains shown)
VH: B1 VH with V48L, A60T
VL: B1 VL
binding result [1]: no binding (tested: 0.5 µg/mL (not on the sheet))
